The values that follow come from patent US20190322750A1 (Y BIOLOGICS, published 2019).

Assay [1] concerns the target PD-L1 on CHO cell line highly expressing PD-L1 (PD-1/PD-L1 blockade bioassay kit, promega J1250) (UniProt Q9NZQ7 19-290, limits assumed). The assay is described as follows: cell-based or functional assay.
The target in another assay is M1. The assay is described as follows: ELISA on coated antigen, column M1. The method, then:
(§1) An antigen PD-L1 wild type (WT) or several mutants were coated at a density of 100 ng/well on a 96-well immunoplate at 4° C. for 16 hours and the wells were blocked with 4% skim milk dissolved in PBS. Each well was washed with 0.2 ml of PBS/T, and then a single clone scFv-phage (each […]) cultured for 16 hours was added in a dose of 100 μl to each well and reacted at room temperature for 2 hours. Again, each well was washed 4 times with 0.2 ml of PBS/T, and then the second antibody, anti-Fab, was diluted to 1/2000 and reacted at room temperature for 1 hour. After washing with 0.2 ml of PBS/T, color development was performed and absorbance was measured at 490 nm.
On the technique in general: In an ELISA, binding on a coated surface is turned into a signal by an enzyme label.

Another assay concerns the target M2. The assay can be described thus: ELISA on coated antigen, column M2. As for the experimental part:
as §1

Another assay deals with M3. The assay can be described thus: ELISA on coated antigen, column M3.
A further assay has as its target M4. The assay can be described thus: ELISA on coated antigen, column M4. As for the experimental part: as §1
In the next assay the target is M5. The assay is described as follows: ELISA on coated antigen, column M5. As for the experimental part:
as §1

Another assay deals with M6. The assay is described as follows: ELISA on coated antigen, column M6. The method, then: as §1
A further assay has as its target M7. The assay is described as follows: ELISA on coated antigen, column M7.
For another assay, the target named is M8. The assay can be described thus: ELISA on coated antigen, column M8. The method, then: as §1
Another assay has as its target T1, WT (human, UniProt Q9NZQ7).
T1 construct: recombinant; also called hPD-L1; antigen PD-L1 wild type (WT)
The assay can be described thus: ELISA on coated antigen, column WT. As for the experimental part:
as §1

The next assay deals with T2, ITGA6.
T2 construct: unrelated antigen column; all antibodies give 0.5 to 0.6
T2 sequence (P23229 whole entry, species assumed, looked up): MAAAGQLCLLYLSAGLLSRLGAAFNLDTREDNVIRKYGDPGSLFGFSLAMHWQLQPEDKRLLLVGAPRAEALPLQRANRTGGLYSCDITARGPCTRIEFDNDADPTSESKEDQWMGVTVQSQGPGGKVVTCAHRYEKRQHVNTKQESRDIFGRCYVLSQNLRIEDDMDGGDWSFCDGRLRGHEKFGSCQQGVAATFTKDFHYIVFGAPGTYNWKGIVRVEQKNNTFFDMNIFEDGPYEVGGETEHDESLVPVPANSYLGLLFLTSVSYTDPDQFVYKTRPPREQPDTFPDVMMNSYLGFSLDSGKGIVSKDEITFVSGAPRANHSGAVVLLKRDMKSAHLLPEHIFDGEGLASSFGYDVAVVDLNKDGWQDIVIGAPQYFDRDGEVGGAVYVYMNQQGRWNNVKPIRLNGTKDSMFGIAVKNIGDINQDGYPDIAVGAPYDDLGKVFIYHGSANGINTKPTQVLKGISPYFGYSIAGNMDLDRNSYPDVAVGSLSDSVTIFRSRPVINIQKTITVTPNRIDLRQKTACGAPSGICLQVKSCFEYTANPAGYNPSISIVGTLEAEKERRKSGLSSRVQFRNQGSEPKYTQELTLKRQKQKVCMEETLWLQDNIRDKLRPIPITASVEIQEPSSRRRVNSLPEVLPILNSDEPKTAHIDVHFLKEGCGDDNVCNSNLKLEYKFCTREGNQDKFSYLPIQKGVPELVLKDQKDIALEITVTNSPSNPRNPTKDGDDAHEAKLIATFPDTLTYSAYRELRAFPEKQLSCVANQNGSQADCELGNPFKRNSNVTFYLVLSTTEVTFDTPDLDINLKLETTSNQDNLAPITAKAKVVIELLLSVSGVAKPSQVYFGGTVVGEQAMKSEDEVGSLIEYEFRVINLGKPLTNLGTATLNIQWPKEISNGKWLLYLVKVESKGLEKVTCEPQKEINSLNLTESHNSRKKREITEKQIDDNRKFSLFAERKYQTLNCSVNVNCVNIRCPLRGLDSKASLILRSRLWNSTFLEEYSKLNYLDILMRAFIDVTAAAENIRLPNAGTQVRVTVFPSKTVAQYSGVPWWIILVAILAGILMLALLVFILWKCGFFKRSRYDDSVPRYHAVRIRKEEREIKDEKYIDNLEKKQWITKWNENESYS
The assay can be described thus: ELISA on coated antigen, column ITGA6.

In assay [2] the target is T3, PD-L1-hFc (human, UniProt Q9NZQ7 19-238).
T3 construct: extracellular domain; Made in HEK-293F cells, protein A purified; also called PD-L1 antigen; PD-L1 protein
T3 sequence (Q9NZQ7 other isoform, or with tags, fused parts or gaps limits assumed): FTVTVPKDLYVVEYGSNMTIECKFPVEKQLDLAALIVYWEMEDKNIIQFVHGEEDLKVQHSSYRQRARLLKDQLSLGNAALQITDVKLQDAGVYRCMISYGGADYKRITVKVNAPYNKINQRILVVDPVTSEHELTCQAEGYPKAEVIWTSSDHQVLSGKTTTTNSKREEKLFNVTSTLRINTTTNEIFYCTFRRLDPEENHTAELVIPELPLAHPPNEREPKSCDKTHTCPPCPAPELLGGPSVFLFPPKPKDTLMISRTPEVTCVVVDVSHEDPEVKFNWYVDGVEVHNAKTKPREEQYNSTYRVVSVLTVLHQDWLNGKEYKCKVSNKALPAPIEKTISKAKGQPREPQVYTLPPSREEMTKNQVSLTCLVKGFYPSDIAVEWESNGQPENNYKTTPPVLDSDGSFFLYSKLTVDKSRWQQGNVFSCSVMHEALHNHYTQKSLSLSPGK
The assay can be described thus: SPR (ProteOn XPR36), PD-L1-hFc immobilised on GLC chip, antibody 30 nM to 0.123 nM as analyte. As for the experimental part:
A ProteOn XPR36 (BioRad) instrument was used. The GLC sensor chip (BioRad) was mounted on the instrument and washed with PBST buffer, and the carboxymethyldextran surface was activated with an EDC/sulfo-NHS mixed solution. PD-L1-hFc dissolved at a concentration of 5 ug/ml in a 10 mM sodium acetate buffer solution (pH 5.0) was injected and immobilized on the GLC sensor chip.
In order to deactivate the activated carboxyl groups that remain unreacted with the PD-L1 protein, 1 M ethanolamine was flowed and 10 mM glycine (pH 2.0) was injected in order to wash proteins that remain unbound to the sensor chip.
The equilibrium dissociation constant (KD) was calculated by plotting and fitting the sensogram data in the equilibrium state depending on concentration.

The target in assay [3] is T4, human PD-L1 over-expressed on HEK293E cells (human, UniProt Q9NZQ7 19-290).
T4 construct: whole, on cells; also called human PD-L1 (NM_014143.2)
T4 sequence (Q9NZQ7 19-290): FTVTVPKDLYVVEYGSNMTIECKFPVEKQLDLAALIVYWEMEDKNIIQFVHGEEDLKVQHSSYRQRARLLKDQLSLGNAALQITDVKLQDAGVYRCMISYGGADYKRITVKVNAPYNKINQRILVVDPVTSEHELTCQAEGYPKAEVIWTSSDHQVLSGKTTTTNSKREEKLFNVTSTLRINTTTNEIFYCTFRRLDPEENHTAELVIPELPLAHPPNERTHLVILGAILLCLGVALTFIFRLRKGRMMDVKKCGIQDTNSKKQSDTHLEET
The assay can be described thus: flow cytometry (Geometric Mean) on HEK293E cells over-expressing human PD-L1, serial dilution. As for the experimental part: Then, the cells were washed three times with PBS (#LB001-02, Welgene) containing 2% fetal bovine serum and reacted at 4° C. for 20 minutes with an anti-human IgG antibody (#FI-3000, Vectorlabs) conjugated with a FITC (fluorescein isothiocyanate) fluorescent substance. Then, the cells were subjected to the same washing process as above and then suspended in 0.5 ml of PBS containing 2% FBS (#26140-079, Thermo Fisher) with an FACSCanto II flow cytometer (BD Biosciences, USA) as a flow cytometer.
Background: Flow cytometry measures light scatter and fluorescence of single cells or particles in a stream.

Assay [4] has as its target T3, PD-L1-hFc. The assay is described as follows: kinetics on PD-L1-hFc (legend paragraph 40; text names ProteOn XPR36, the sheet's sensorgrams have a nm axis).

T1 sequence (Q9NZQ7 19-238 limits assumed): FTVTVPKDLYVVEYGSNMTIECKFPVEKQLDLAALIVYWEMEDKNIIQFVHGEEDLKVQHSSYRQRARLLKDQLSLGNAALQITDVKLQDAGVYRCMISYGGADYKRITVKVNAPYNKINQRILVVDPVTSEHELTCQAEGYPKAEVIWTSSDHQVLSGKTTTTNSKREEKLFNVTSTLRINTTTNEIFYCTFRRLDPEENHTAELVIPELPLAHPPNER
Chain of PD-L1 on CHO cell line highly expressing PD-L1 (PD-1/PD-L1 blockade bioassay kit, promega J1250) (Q9NZQ7 19-290 limits assumed): as the sequence (Q9NZQ7 19-290) above

B1: PDL1-16E12 (antibody, V domains shown)
VH: QMQLVQSGAEVKKPGSSVKVSCKASGGTFSSYAISWVRQAPGQGLEWMGRIIPILGIANYAQKFQGRVTITADKSTSTAYMELSSLRSEDTAVYYCAKPRDGYNLVAFDIWGQGTMVTVSS
VL: QLVLTQPPSVSGAPGQTVTISCTGSSSNIGAGYDVHWYQQLPGTAPKLLIYGNNNRPSGVPDRFSGSKSGALASLAITGLQAEDGADYHCQSYDNSLSAHAVFGTGTKVTVL
notes: Only FR/CDR pieces are tied to the clone; also called parent antibody
For B1, the EC50 in assay [1] came out at 909 pM; in assay [3], 1720 pM. Further, the “absorbance at 490 nm” value with M1 was 2.4; in the assay with M2 it was 2.3; with M3 it was 0.9; in the assay with M4, 0.4; with M5, 2.4; with M6, 2.5. Moreover, the “absorbance at 490 nm” value in the assay with M7 stood at 2.5; with M8, 2.6; with WT, 2.5; with ITGA6, 0.5. For the same molecule, the dissociation constant (Kd) was 45 pM with PD-L1-hFc [2] and 43 pM in the assay with PD-L1-hFc [4]. Also, the koff in the assay with PD-L1-hFc [4] was found to be 1.43e-05 s⁻¹. In addition, the kon with PD-L1-hFc [4] is 334000 M⁻¹ s⁻¹.

A word on the EC50: it is the concentration needed to bring the measured effect to its halfway point. Read a high EC50 as a need for much substance. Broadly, the Kd is the constant that tells how readily two partners part at equilibrium. A lower Kd goes with a tighter complex. Usually koff stands for the first-order rate constant of dissociation. By kon is commonly meant the rate constant with which the complex forms. A lower kon goes with slow association.
